# Assay results as given in the supplement of paper PMC10567573.
# ± gives the standard deviation.
# Assay: protein stability index of a GFP-peptide fusion (GPS, HEK-293T) (PSI 1-6); higher = more stable
# Conditions: c terminus: a fixed tail appended
# 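Note: 24-mer peptide tiles fused after GFP, lentivirally expressed, FACS-sorted into six equal bins by GFP/DsRed ratio, decoded by Illumina sequencing, PSI is the read-weighted mean bin number.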
Sequence,protein stability index (treatment: DMSO),"protein stability index (treatment: MLN4924 1 uM, 8 h)"
SLSSIATCVYIAEIAPQHRRGLLV [SLC2A12],2.6 ± 0.81,2.6 ± 0.52
LRRVLDELTLARTDLEMQIEGLKE [KRT16],2.9 ± 0.52,3.07 ± 0.14
KGYPDGVKSIVVKGYNIWTGGPDA [TLE6],2.68 ± 0.28,2.8 ± 0.49
FLVMKGQEGAASKVLGRLRALSDT [SLC2A12],2.27 ± 0.45,2.44 ± 0.39
SQKDLENDPSVNSQAQETTIIASN [TOR1AIP2],5.37 ± 0.16,5.28 ± 0.29
AAPPPLKDDPEGDRDGCVITKVLL [ZBED3],3.62 ± 0.27,3.62 ± 0.27
VTIPAGATHILVRQQGNPGHRSIY [ADAMTS4],2.51 ± 0.12,2.32 ± 0.52
VTQEPRAKKGRRNQSVEPKKEEPE [ZMYND11],5.45 ± 0.24,5.6 ± 0.21
EVPQLPPRASISHVTCVDQSEHTM [C2CD2L],4.66 ± 0.15,4.7 ± 0.25
NSHLTSVPHWINSNTLGFGTEQAP [ETS2],3.42 ± 0.15,3.45 ± 0.21
TSVNLGILTADLYSLFVGLFLFGY [SLC35F2],2.93 ± 0.26,3.12 ± 0.2
LCEKEPLGNVLFSPICLSTSLSLA [SERPINB5],2.13 ± 0.34,2.18 ± 0.34
MEGTPTIKSKKKLLQIIDTTLLKC [VPS39],2.25 ± 0.24,2.36 ± 0.25
INEDLKTCSRVDYCLLSDHGCEYS [MATN2],3.41 ± 0.21,3.35 ± 0.33
MQRKQSLGKPDQKDLNENLAATQG [DLC1],5.11 ± 0.37,4.99 ± 0.45
ADNMEFEQCIKLWLHALHLRQKGN [FEM1B],2.56 ± 0.15,2.72 ± 0.2
RWDLSPEQIKTRTEELIVQTKQVY [NLN],3.44 ± 0.32,3.8 ± 0.088
QFLFIYQLPFCGPNVIDNFLCDLY [OR4A15],3.04 ± 0.11,2.86 ± 0.38
PVTKPLFPSAGQAQAAVQGPVGTD [ZNF207],5.15 ± 0.17,5.05 ± 0.11
NWTVAFAPDGSYFAWSQGHRTVKL [WSB1],2.42 ± 0.53,2.47 ± 0.44
EIHSKTTAYSRLNETQPIDLSGLP [RNF180],3.6 ± 0.14,3.75 ± 0.25
GAAQEALSIQLQPKETQPFPKSEQ [ZNF232],5.17 ± 0.25,5.22 ± 0.23
IETSALDSTNVEEAFKNILTEIYR [RAB11B],2.41 ± 0.14,2.79 ± 0.29

Sequence,protein stability index (treatment: DMSO),"protein stability index (treatment: MLN4924 1 uM, 8 h)"
FPVAEQDKLLKHMIIEHKIVIADV [ZNF277],2.25 ± 0.18,2.4 ± 0.34
EQILELLVLEQFLTILPTEIETWV [ZNF449],3.15 ± 0.38,2.73 ± 0.52
MEEMEEELKCPVCGSFYREPIILP [TRIM9],4.05 ± 0.35,4.38 ± 0.28
RLHLRRTTEQHVPEVEVQVKRRRT [SNURF],4.75 ± 0.26,4.71 ± 0.35
HQGIKPYKCSWCGKSFSQNTNLHT [ZNF75A],2.1 ± 0.002,2.52 ± 0.25
SLISLSNNTGKNLELKFVSSLRRQ [TENT5D],2.34 ± 0.081,2.58 ± 0.098
SPLLETFSDLQVYSYRRLGEEALS [SLC22A15],2.44 ± 0.31,2.27 ± 0.23
LDGQLDFEEFVHYLQDHEKKLRLV [SLC25A25],3.3 ± 0.68,2.98 ± 0.33
YCNFNKYIPRRLEEAAMQKCLVTE [RSAD1],2.32 ± 0.41,2.51 ± 0.38
ERVEAFSDGVYAIVATLLILDICE [TMEM175],3.05 ± 0.15,3.15 ± 0.22
RKLRKTVNGDGSRENGNNSSDKVR [PHTF1],4.96 ± 0.088,4.99 ± 0.18
SFFAAQAGARKIYAVEASTMAQHA [CARM1],2.8 ± 0.45,2.78 ± 0.69
GSSLSGSLCSLLESQSTSLRGSYN [LURAP1L],3.07 ± 0.14,2.87 ± 0.29
KEFILTDEEVQRKREMILKRKEEE [VDR],5.33 ± 0.23,5.38 ± 0.23
KADTLKERYQKIGDTKRATPIEVL [CSNK1G3],3.88 ± 0.18,4.01 ± 0.32
TEVITASEFHPHHCNLFVYSSSKG [PPP2R2C],2.73 ± 0.24,2.97 ± 0.29
NLLQYVRMPLLTPRYITDVIDAEP [KLHL12],2.29 ± 0.45,2.33 ± 0.26
IGRDPPAETQPQNPPAQPAPNAWQ [CLPTM1],5.21 ± 0.31,5.02 ± 0.25
HSYCRMFLQRGADTNLGRLEDGQT [ASB7],2.73 ± 0.44,2.85 ± 0.48
EIFGPVTCVVPFDSEEEVIERANN [ALDH8A1],5.18 ± 0.17,5.17 ± 0.22
TKIRALQGSLENMSKLLKRQNDIL [CD207],2.4 ± 0.16,2.57 ± 0.21
CLKKFNARRKLKGAILTTMLATRN [CAMK2A],3.21 ± 0.15,3.32 ± 0.34
RGSRGAPPPLGPVVPVLVFPPDLV [MOSPD3],2.67 ± 0.05,2.96 ± 0.22

Sequence,protein stability index (treatment: DMSO),"protein stability index (treatment: MLN4924 1 uM, 8 h)"
FGERRIPRGRRISVICRSLPEGMG [ALKBH7],2.82 ± 0.29,2.87 ± 0.26
SDSGSDKSLEGGGTAFDAETDSEM [SMG5],5.54 ± 0.15,5.62 ± 0.19
EAVSTLLGAVAVFAVGYIKISWST [SLC19A2],2.82 ± 0.21,2.98 ± 0.73
ARAFAEKNGLSFIETSALDSTNVE [RAB11A],4.28 ± 0.41,4.24 ± 0.44
KDSYSSRDYPSSRDTRDYAPPPRD [RBMX],4.08 ± 0.24,4.09 ± 0.6
LHYQDTDSDVPEQRDSKCKVKWTH [MYBL2],3.77 ± 0.32,4.05 ± 0.19
QLEKPPEKEEDHAPEFIKVRENLR [FAM107A],5.29 ± 0.23,5.32 ± 0.16
TKGVREVERALQLPREPGDSAQFT [FEM1A],4.72 ± 0.23,4.76 ± 0.29
ELKEKEATLCLEFLLQNDANPSIR [ANKRD44],3.19 ± 0.096,3.25 ± 0.31
KFLPSSEEDNDDAKILPSPVQGSS [DRICH1],5.21 ± 0.25,5.47 ± 0.17
NYECNLYTFLYLVCISTKTQCSEE [FEM1B],3.11 ± 0.38,2.81 ± 0.4
GYGRDRDYSDHPSGGSYRDSYESY [RBMX],3.91 ± 0.2,3.462 ± 0.032
APTSTCRTSVGVAVLGGFLYAVGG [KLHL20],3.02 ± 0.94,2.71 ± 1.2
NREACRDLSGRRLRDVNHEKAMAE [SDE2],5.01 ± 0.12,4.87 ± 0.32
GGSTSAHYAVNSQFTMGGPAISMA [CARM1],2.94 ± 0.55,2.94 ± 0.25
FTVGSVLGQILVSVAGWSLFSLNV [SLC19A2],3.28 ± 0.33,3.1 ± 0.63
AKVKGEKLDKKLKKMEQNKTAATR [ATF4],4.88 ± 0.39,4.85 ± 0.16
IQRIRSEIENVKKQASNLETAIAD [KRT71],4.42 ± 0.29,4.61 ± 0.31
TGVPGSPGHIGPPGPTGPKGISGH [EMID1],4.33 ± 0.3,4.71 ± 0.27
DEIENLLDSDHRELIGDYSKAFLL [CDC25B],3.55 ± 0.36,3.41 ± 0.53
HSYLSGYISLLLRAEPYPTSRFGS [NR2F2],3.06 ± 0.33,2.85 ± 0.2
IGLGHIYSGTFALIGAAAFLGGVV [CLCN6],2.94 ± 0.19,3.27 ± 0.7
PMYFFLGNLSVLDVGCISVTVPSM [OR3A1],2.65 ± 0.52,3.06 ± 0.65

Sequence,protein stability index (treatment: DMSO),"protein stability index (treatment: MLN4924 1 uM, 8 h)"
VNDLRGSDSIAYDKGEKLLRCKLA [ADD1],3.34 ± 0.21,3.48 ± 0.48
GAPLIRVHSSPVSSPSVSGPRRLV [SPACA3],3.24 ± 0.31,3.6 ± 0.19
GDWAPPPEGGMEQALAGASSGREL [ZNF263],5.35 ± 0.36,5.37 ± 0.16
LRSPRKFGVAGRSCQEVLRKGCLR [DFFB],2.9 ± 0.19,2.74 ± 0.35
DGNLCLHVPNPPSGISFPSVVDHP [HESX1],3.73 ± 0.5,3.78 ± 0.15
LQISEELLSRNQLSTAASLGPSGL [LCOR],3.5 ± 0.14,3.35 ± 0.41
TKVGGTNPNGGSFEEVLSSTAHAS [TPD52L1],4.78 ± 0.26,4.69 ± 0.26
KLERIARLEDKVKTLKAENAGLSS [JUNB],3.85 ± 0.34,3.97 ± 0.22
VCSQCGKVLEEGGFFEEKGAIFCP [PDLIM7],4.88 ± 0.22,4.81 ± 0.38
GLSPRVIRVWFQNKRCKDKKKSIL [ISL2],2.13 ± 0.45,2.36 ± 0.085
ELSAIGSDTTPLPSWAALNSSTWG [SNX8],2.94 ± 0.36,2.75 ± 0.18
RERKKNWGGQEDREPAGRWKEGRP [PBXIP1],4.49 ± 0.24,4.73 ± 0.13
RLRHYLGSRYDARRGVSDWDLRMK [DNAAF3],2.19 ± 0.21,2.33 ± 0.33
PPARGTLKTSNLPEELRKVFITYS [TRAF3IP2],2.53 ± 0.37,2.53 ± 0.12
GQENDATSPHFSTRHEGSFQVPVL [CD69],3.68 ± 0.35,3.69 ± 0.14
LYQTELVENECYQVFLDRINRADY [TOR1AIP2],2.45 ± 0.27,2.71 ± 0.15
AMETDGPLFEDVQMLRKTVKDEAH [PPP2R5C],5.24 ± 0.49,5.12 ± 0.39
LGSTKLSDKDKAVGIFNTVINPML [OR3A1],3 ± 0.46,3.19 ± 0.28
PSFCPVQPCFFQDISMEIPQEFQK [SCAMP3],3.64 ± 0.35,3.69 ± 0.21
GSRPACQLQVPTLRQQCAQVLRNN [ELOA2],4.43 ± 0.14,4.51 ± 0.3
